In the supplement of paper PMC10567573:

B1: ZNF511 (parent)
chain: AAPFRFVARPVRFPREHQFFEDGD
B2: LRRC45 (parent)
chain: FQTRQEMTSMSAELKMRAIQAEER

Variants of: B1
Experiment: protein stability index of a GFP-peptide fusion (GPS, HEK-293T) (PSI 1-6); higher = more stable
Conditions: c terminus: a fixed tail appended
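Further: lentivirally expressed fusions sorted by FACS into six bins by GFP to DsRed ratio, PSI derived from sequencing read proportions per bin multiplied by bin number.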

Protein stability index of substitutions, site by site:
D24: S 2.01; Q 2.06; R 2.04; W 2.32; F 1.83; P 2.1; V 2.73; L 2.04; Y 1.83; H 1.66; M 1.49; K 2.97; N 2.88; T 1.72; G 2.08; I 1.53

Variants of: B2
Experiment: as above
Conditions: c terminus: a fixed tail appended

Protein stability index, by site and new letter:
E6: P 2.78; T 3.88; S 4.01; A 3.42; C 3.33; R 3.72; I 2.5; L 3.03; M 3.36; G 3.48; F 2.27; H 3.02; N 3.87; K 3.53; D 3.63; V 3.11; Q 3.44
Q5: L 3.77; W 1.66; F 2.04; T 3.65; C 2.82; D 4.71; H 3.54; I 3.11; P 3.99; S 3.97; E 4.31; A 3.83; Y 1.79; K 4.08; V 3.97; N 4.25; M 3.32; G 4.85; R 3.7
T3: H 3.42; A 4.32; R 3.55; F 3.95; W 2.06; N 3.52; I 3.86; V 3.43; S 3.97; P 4.04; E 5.23; M 3.52; G 3.72; Y 3.22; Q 3.83; K 4.28; D 4.4; C 3.02; L 3.76
F1: Y 4.02; T 5.21; K 5.1; G 4.46; E 4.91; Q 5.21; L 5.21; S 5.1; D 5.24; W 4.66; M 4.52; I 4.27; P 4.5; A 4.88; C 4.85; R 4.42; H 4.85; N 5.13; V 4.92
S9: A 4.43
Q2: V 2.23; H 2.27; Y 3.78; T 3.92; P 4.69; A 3.67; C 3.29; G 4.85; R 4.18; W 4.01; S 4.85; E 5.13; D 4.48; M 4.3; N 3.89; L 3.76; I 2.93; F 4.36; K 3.59
R4: E 4.95; G 4.34; Q 4.14; D 4.99; A 4.09; H 3.66; P 4.62; K 4.08; I 4.09; L 4.4; S 4.39; V 3.77; T 4.46; C 4.63; W 2.48; M 3.94; Y 3.88; F 3.37; N 4.35
T8: I 3.8; G 4.33; F 2.19; Q 4.28; C 3.11; W 1.34; A 3.85; V 3.76; K 3.86; P 3.94; D 4.16; H 4.38; E 4.57; R 4.26; S 3.72; L 3.79; M 3.47; Y 2.69; N 3.92
M7: Q 4.14; C 3.6; A 4.26; D 4.64; N 3.71; V 3.4; Y 3.31; L 3.77; R 4.26; F 3; S 4.27; G 3.93; H 4.28; I 3.41; K 4.02; T 4.61; P 3.71; E 4.57; W 2.68
